Source: the supplement of paper PMC6757056
± gives the standard deviation of the averaged measurements.

B1: library; a variant is named by its letters at N, in order (parent)
chain: GCUGUCACCGGUGCUUGGUACGUUAUAUUCAGCCGGUCUGAUGAGUCUNNNNNNAGACGAAACAGC

Assays:
(6R,S)-folinic acid [1] = variants of: B1; assay: FACS-Seq fitted mean relative fluorescence mCherry/BFP without ligand (log10 relative fluorescence); HEK293T overexpressing SLC46A1; higher = higher reporter protein expression; details: without (6R,S)-folinic acid; ligand present: no
Protocol: (§1)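 Hammerhead (sTRSV) ribozyme switch libraries with a ligand aptamer grafted on stem I and a randomized N4-6 loop II, cloned into the 3' UTR of mCherry and transiently transfected into HEK293T cells; RNA-Seq 72 h post transfection with ligand added 1 h before transfection; RNA read count / plasmid DNA read count normalized to the non-cleaving sTRSVctl (x100), log10; sequences with >100 DNA reads. FACS-Seq: lentiviral library sorted into 6 bins after 48 h ligand, log-normal fit mean of mCherry/BFP scaled to controls. Printed sequences are partial switch sequences.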

(6R,S)-folinic acid [2] = variants of: B1; assay: normalized RNA/DNA level without ligand (relative to sTRSVctl = 100) (log10 (% of sTRSVctl)); HEK293T overexpressing SLC46A1; higher = less ribozyme self-cleavage, higher mRNA level; details: without (6R,S)-folinic acid; ligand present: no
Protocol: as §1

(6R,S)-folinic acid [3] = variants of: B1; assay: FACS-Seq fitted mean relative fluorescence mCherry/BFP with ligand (log10 relative fluorescence); HEK293T overexpressing SLC46A1; ligand concentration (+) FACS-Seq: 6 mM; higher = higher reporter protein expression; details: with (6R,S)-folinic acid; ligand present: yes
Protocol: as §1

(6R,S)-folinic acid [4] = variants of: B1; assay: normalized RNA/DNA level with ligand (relative to sTRSVctl = 100) (log10 (% of sTRSVctl)); HEK293T overexpressing SLC46A1; ligand concentration (+) RNA-Seq: 6 mM; higher = less ribozyme self-cleavage, higher mRNA level; details: with (6R,S)-folinic acid; ligand present: yes
Protocol: as §1

Variant | FACS-Seq fitted mean (log10) ((6R,S)-folinic acid [1]) | normalized RNA/DNA level without ligand (log10) ((6R,S)-folinic acid [2]) | FACS-Seq fitted mean (log10) ((6R,S)-folinic acid [3]) | normalized RNA/DNA level with ligand (log10) ((6R,S)-folinic acid [4])
CAAUAA | 0.248 ± 0.034 | 1.934 ± 0.017 | 0.463 ± 0.091 | 1.97 ± 0.031
CAAUAG | 0.376 ± 0.018 | 1.942 ± 0.0058 | 0.641 ± 0.16 | 2.011 ± 0.0065
UACACG | 0.231 ± 0.14 | 1.808 ± 0.0037 | 0.348 ± 0.022 | 1.95 ± 0.053
UACACA | 0.187 ± 0.0057 | 1.974 ± 0.012 | -0.044 ± 0.049 | 1.9892 ± 0.0017
UAAGAA | 0.023 ± 0.078 | 1.882 ± 0.011 | -0.19 ± 0.37 | 1.96 ± 0.022
UAAGAG | 0.104 ± 0.05 | 1.667 ± 0.0094 | 0.3 ± 0.061 | 1.96 ± 0.038
AAAUCC | 0.504 ± 0.068 | 2.044 ± 0.013 | 0.398 ± 0.23 | 2.03 ± 0.044
AAAUCG | 0.416 ± 0.0066 | 1.955 ± 0.0094 | 0.42 ± 0.12 | 2.03 ± 0.036
UAAGGG | -0.0665 ± 0.0016 | 1.601 ± 0.002 | 0.263 ± 0.16 | 1.92 ± 0.025
UAAGGA | 0.0731 ± 0.084 | 1.85 ± 0.026 | 0.217 ± 0.0071 | 1.997 ± 0.018
CAAUGA | 0.153 ± 0.14 | 1.998 ± 0.0058 | 0.267 ± 0.16 | 2.02 ± 0.049
GACAGG | 0.464 ± 0.089 | 1.959 ± 0.01 | 0.498 ± 0.27 | 2.02 ± 0.042
GACAGA | 0.403 ± 0.0081 | 1.994 ± 0.017 | 0.442 ± 0.15 | 2.01 ± 0.035
AAAGCG | 0.0389 ± 0.01 | 1.743 ± 0.0089 | 0.352 ± 0.079 | 1.989 ± 0.013
AAAGCA | 0.3689 ± 0.0015 | 1.975 ± 0.0052 | 0.575 ± 0.35 | 1.98 ± 0.044
AAAAUU | 0.432 ± 0.056 | 2.0158 ± 0.0011 | 0.29 ± 0.039 | 2.02 ± 0.031
AAAAUA | 0.397 ± 0.014 | 1.9645 ± 0.00067 | 0.47 ± 0.066 | 2 ± 0.025
UAAGCA | 0.463 ± 0.0091 | 1.9355 ± 0.00085 | 0.377 ± 0.12 | 1.99 ± 0.021
